{
  "source": "paper PMC4877568",
  "about": "“Structure-based site-directed photo-crosslinking analyses of multimeric cell-adhesive interactions of voltage-gated sodium channel β subunits” (Scientific Reports, 2016)",
  "target": "the molecule itself",
  "assay": "crystal structure; X-ray crystallography of β4ex; antiparallel contacts between β4ex molecules in the crystal lattice; crystals from 30% (w/v) PEG 1500, sitting drop, 20 °C",
  "data": [
    {"protein": "mouse β4 subunit extracellular domain fragment (domain or fragment, UniProt Q7M729 30-160, looked up, voltage-gated sodium channel β4 subunit, mouse, residues 30-160; amino acid numbering starts from the initiator methionine; His tag removed by TEV protease; contains all three Cys residues; also called β4ex; β4 extracellular domain; source: Escherichia coli cell-free method, purified (HisTrap, TEV cleavage, Mono Q, Superdex 75); not shown: histidine tag, N-terminal, cleaved) SLEVSVGKATTIYAINGSSILLPCTFSSCYGFENLYFKWSYNNSETSRILIDGIVKNDKSDPKVRVKDDDRITLEGSTKEKTNNISILLSDLEFSDTGRYTCFVRNPKEKDLNNSATIFLQVVDKLEKVDN", "values": [
      {"measurement": "binding result", "value": "binds"}
    ]}
  ]
}
